The record followed here is IntAct's records for PubMed 31515488.

Sequences and labels used below:
B1: Sperm microtubule associated protein 2 (Homo sapiens), Q9P2T0 (parent)
chain: MGDSRRRSLGNQPSSEAAGRSEREQDGDPRGLQSSVYESRRVTDPERQDLDNAELGPEDPEEELPPEEVAGEEFPETLDPKEALSELERVLDKDLEEDIPEISRLSISQKLPSTTMTKARKRRRRRRLMELAEPKINWQVLKDRKGRCGKGYAWISPCKMSLHFCLCWPSVYWTERFLEDTTLTITVPAVSRRVEELSRPKRFYLEYYNNNRTTPVWPIPRSSLEYRASSRLKELAAPKIRDNFWSMPMSEVSQVSRAAQMAVPSSRILQLSKPKAPATLLEEWDPVPKPKPHVSDHNRLLHLARPKAQSDKCVPDRDPRWEVLDVTKKVVASPRIISLAKPKVRKGLNEGYDRRPLASMSLPPPKASPEKCDQPRPGL
B2: Spermatogenesis-associated protein 2 (Homo sapiens), Q9UM82 (parent)
chain: MGKPSSMDTKFKDDLFRKYVQFHESKVDTTTSRQRPGSDECLRVAASTLLSLHKVDPFYRFRLIQFYEVVESSLRSLSSSSLRALHGAFSMLETVGINLFLYPWKKEFRSIKTYTGPFVYYVKSTLLEEDIRAILSCMGYTPELGTAYKLRELVETLQVKMVSFELFLAKVECEQMLEIHSQVKDKGYSELDIVSERKSSAEDVRGCSDALRRRAEGREHLTASMSRVALQKSASERAAKDYYKPRVTKPSRSVDAYDSYWESRKPPLKASLSLRKEPVATDVGDDLKDEIIRPSPSLLTMASSPHGSPDVLPPASPSNGPALLRGTYFSTQDDVDLYTDSEPRATYRRQDALRPDVWLLRNDAHSLYHKRSPPAKESALSKCQSCGLSCSSSLCQRCDSLLTCPPASKPSAFPSKASTHDSLAHGASLREKYPGQTQGLDRLPHLHSKSKPSTTPTSRCGFCNRPGATNTCTQCSKVSCDACLSAYHYDPCYKKSELHKFMPNNQLNYKSTQLSHLVYR
partner: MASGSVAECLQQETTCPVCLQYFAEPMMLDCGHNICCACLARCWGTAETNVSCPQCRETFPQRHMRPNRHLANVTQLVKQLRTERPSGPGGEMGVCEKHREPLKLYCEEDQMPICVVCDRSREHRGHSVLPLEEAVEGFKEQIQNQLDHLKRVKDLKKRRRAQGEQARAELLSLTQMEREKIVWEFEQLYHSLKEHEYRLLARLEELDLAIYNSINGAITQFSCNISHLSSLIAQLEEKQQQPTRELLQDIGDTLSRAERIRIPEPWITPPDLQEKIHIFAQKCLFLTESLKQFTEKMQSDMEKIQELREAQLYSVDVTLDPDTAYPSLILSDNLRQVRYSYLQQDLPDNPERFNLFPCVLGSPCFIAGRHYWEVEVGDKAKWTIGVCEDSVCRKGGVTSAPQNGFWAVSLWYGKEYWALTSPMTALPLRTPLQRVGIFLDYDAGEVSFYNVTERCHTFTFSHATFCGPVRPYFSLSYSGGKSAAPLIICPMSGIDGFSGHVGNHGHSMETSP
B3: Protein FAM9B (Homo sapiens), Q8IZU0 (parent)
chain: MAAWGKKHAGKDPVRDECEERNRFTETREEDVTDEHGEREPFAETDEHTGANTKKPEDTAEDLTAKRKRMKMDKTCSKTKNKSKHALRKKQLKRQKRDYIHSLKLLNVLEEYITDEQKEEEEEEGEEEELIRIFQEQQKKWQQYRSVRRERLKEMKLLRDQFVKALEDFEDLCDRVFSDEDSELDN
partner: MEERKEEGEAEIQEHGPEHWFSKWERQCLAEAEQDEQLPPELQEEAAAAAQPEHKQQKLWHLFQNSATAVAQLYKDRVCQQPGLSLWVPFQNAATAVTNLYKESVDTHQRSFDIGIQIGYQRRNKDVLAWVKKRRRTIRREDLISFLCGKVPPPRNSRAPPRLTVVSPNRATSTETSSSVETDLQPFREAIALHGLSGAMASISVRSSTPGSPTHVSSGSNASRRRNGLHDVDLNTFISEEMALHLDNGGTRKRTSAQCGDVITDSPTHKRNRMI
B4: Notch homolog 2 N-terminal-like protein A (Homo sapiens), Q7Z3S9 (parent)
chain: MCVTYHNGTGYCKCPEGFLGEYCQHRDPCEKNRCQNGGTCVAQAMLGKATCRCASGFTGEDCQYSTSHPCFVSRPCLNGGTCHMLSRDTYECTCQVGFTGKECQWTDACLSHPCANGSTCTTVANQFSCKCLTGFTGQKCETDVNECDIPGHCQHGGTCLNLPGSYQCQCLQGFTGQYCDSLYVPCAPSPCVNGGTCRQTGDFTFECNCLPETVRRGTELWERDREVWNGKEHDEN
partner: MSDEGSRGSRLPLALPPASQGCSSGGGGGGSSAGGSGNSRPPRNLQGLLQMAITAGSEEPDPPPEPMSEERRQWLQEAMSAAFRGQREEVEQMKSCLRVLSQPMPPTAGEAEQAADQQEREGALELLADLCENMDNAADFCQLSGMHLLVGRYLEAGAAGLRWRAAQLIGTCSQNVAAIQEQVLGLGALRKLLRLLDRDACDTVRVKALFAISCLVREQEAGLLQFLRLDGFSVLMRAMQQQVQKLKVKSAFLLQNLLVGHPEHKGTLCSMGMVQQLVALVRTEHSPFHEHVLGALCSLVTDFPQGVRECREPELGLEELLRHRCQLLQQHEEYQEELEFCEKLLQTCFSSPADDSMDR

In the first assay the parent is B1. Conditions: with fhl3_human FHL3, Q13643.
fhl3_human FHL3, Q13643, sequence (Q13643 whole entry): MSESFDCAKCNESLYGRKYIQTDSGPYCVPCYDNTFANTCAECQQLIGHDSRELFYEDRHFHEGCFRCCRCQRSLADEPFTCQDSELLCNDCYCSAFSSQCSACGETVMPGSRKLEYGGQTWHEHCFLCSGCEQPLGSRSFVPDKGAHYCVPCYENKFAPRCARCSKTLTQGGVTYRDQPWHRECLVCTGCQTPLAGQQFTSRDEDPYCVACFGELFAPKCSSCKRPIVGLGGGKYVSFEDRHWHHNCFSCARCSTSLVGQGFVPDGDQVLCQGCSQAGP
As to R176Q, the “effect of a mutation on the interaction” value was “with no effect”.

R176W: the “effect of a mutation on the interaction” value is on record as “with no effect”.

Turning to R231H, the “effect of a mutation on the interaction” value was “with no effect”.

Regarding D79G, the “effect of a mutation on the interaction” value was “with no effect”.

Consider L131R, for which the “effect of a mutation on the interaction” value was “with no effect”.

In the case of M249V, the “effect of a mutation on the interaction” value is given as “with no effect”.

Consider R147C, for which the “effect of a mutation on the interaction” value is “with no effect”.

Consider T184A, for which the “effect of a mutation on the interaction” value is “with no effect”.

As for P66S, the “effect of a mutation on the interaction” value is “with no effect”.

The variants in another assay derive from B2. The note with it: with tri27_human TRIM27, P14373.
Take L443F: the “effect of a mutation on the interaction” value is given as “disrupting interaction strength”.

The variants in another assay derive from B3. The note with it: with hapr1_human HAPSTR1, Q14CZ0.
Turning to R23H, the “effect of a mutation on the interaction” value is “with no effect”.

Variants of B4 are the subject of the next assay. Conditions: with hpbp1_human HSPBP1, Q9NZL4.
Regarding R74Q, the “effect of a mutation on the interaction” value is listed as “with no effect”.
